According to publication PMC11275212, “Eukaryotic Pif1 helicase unwinds G-quadruplex and dsDNA using a conserved wedge” (Nature Communications, 2024):

Legend:
[1] = biological target: T1, ScPif1 (Saccharomyces cerevisiae Pif1, residues 236–753) (Saccharomyces cerevisiae, UniProt P07271); assay: ATP hydrolysis assay; format: biochemical; conditions: ATPase rate only in supplement
T1 construct: helicase core domain, residues 236-753; N-terminal SUMO tag (pET28a) cleaved by Ulp protease; E. coli BL21; monomer on G4 DNA
T1 sequence (P07271 236-753): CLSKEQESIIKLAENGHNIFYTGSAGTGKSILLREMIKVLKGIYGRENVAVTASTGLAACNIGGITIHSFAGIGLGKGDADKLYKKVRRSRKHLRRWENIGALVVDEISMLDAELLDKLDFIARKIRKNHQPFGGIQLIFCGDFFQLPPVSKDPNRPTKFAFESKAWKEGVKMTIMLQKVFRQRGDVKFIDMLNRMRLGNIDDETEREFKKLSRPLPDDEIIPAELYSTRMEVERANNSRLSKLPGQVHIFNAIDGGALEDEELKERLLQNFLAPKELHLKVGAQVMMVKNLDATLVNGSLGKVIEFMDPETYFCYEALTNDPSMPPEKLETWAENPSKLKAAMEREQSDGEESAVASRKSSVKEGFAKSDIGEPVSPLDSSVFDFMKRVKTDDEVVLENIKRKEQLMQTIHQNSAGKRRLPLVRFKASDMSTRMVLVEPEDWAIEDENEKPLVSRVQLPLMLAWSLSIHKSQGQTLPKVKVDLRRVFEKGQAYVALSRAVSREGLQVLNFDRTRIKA

[2] = biological target: T2, ScPif1 (Saccharomyces cerevisiae, UniProt P07271 236-753); assay: fluorescence anisotropy; no nucleotide; Fluorescence anisotropy: 20 mM HEPES-NaOH pH 7.5, 100 mM NaCl, 10% glycerol, 20 C, 10 nM FAM-DNA, 30 min, quadratic fit; conditions: protein: recombinant, tags: N-terminal SUMO tag (Ni-NTA purified), cleaved by Ulp protease, label: 3' 6-FAM
T2 sequence: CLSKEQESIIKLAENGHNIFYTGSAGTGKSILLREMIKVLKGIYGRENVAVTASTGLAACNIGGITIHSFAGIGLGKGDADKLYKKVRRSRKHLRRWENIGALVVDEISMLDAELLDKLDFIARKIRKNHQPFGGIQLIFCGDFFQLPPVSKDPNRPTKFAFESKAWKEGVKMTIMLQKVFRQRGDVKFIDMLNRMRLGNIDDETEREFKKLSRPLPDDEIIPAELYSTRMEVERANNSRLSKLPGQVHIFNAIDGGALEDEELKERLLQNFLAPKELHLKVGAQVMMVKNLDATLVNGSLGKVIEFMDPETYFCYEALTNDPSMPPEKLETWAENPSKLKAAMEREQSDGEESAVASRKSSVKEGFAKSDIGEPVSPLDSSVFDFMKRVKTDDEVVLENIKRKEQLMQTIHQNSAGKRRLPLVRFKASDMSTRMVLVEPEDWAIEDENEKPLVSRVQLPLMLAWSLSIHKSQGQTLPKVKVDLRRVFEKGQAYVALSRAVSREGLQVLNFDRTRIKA

[3] = biological target: T3, ScPif1 R324E (Saccharomyces cerevisiae, UniProt P07271 236-753, R324E); assay: as above; conditions: protein: recombinant; tags: N-terminal SUMO tag, cleaved; label: 3' 6-FAM; parallel intramolecular G4
T3 sequence: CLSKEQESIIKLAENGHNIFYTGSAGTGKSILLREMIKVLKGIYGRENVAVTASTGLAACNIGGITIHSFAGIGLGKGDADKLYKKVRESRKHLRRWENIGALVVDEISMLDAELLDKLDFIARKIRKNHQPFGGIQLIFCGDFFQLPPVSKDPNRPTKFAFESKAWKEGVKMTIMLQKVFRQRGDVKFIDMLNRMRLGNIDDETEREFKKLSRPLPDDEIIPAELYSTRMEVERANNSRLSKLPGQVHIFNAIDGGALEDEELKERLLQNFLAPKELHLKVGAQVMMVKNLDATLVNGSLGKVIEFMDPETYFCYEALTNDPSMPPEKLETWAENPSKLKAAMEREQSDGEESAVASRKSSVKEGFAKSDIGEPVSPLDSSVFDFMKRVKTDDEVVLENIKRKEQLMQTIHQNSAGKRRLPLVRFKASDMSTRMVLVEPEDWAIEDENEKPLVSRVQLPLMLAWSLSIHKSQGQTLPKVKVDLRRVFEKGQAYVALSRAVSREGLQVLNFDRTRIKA

[4] = biological target: T4, ScPif1 R324Y (Saccharomyces cerevisiae, UniProt P07271 236-753, R324Y); assay: as above; conditions: protein: recombinant; tags: N-terminal SUMO tag, cleaved; label: 3' 6-FAM; parallel intramolecular G4
T4 sequence: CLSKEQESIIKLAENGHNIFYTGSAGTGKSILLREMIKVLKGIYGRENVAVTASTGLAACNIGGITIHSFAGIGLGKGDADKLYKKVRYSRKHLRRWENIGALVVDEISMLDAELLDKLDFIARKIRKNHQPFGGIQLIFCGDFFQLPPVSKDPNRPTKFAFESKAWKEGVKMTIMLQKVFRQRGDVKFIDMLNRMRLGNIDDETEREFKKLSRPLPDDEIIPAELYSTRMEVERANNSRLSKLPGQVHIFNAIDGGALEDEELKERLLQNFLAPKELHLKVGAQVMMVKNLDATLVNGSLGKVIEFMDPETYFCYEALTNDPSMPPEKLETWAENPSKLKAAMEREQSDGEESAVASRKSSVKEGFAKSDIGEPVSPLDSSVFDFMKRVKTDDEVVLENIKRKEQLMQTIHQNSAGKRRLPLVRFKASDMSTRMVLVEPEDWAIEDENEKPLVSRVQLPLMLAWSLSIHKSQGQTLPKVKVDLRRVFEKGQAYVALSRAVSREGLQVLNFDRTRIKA

[5] = biological target: T5, ScPif1 R324A (Saccharomyces cerevisiae, UniProt P07271 236-753, R324A); assay: as above; conditions: protein: recombinant; tags: N-terminal SUMO tag, cleaved; label: 3' 6-FAM; parallel intramolecular G4
T5 sequence: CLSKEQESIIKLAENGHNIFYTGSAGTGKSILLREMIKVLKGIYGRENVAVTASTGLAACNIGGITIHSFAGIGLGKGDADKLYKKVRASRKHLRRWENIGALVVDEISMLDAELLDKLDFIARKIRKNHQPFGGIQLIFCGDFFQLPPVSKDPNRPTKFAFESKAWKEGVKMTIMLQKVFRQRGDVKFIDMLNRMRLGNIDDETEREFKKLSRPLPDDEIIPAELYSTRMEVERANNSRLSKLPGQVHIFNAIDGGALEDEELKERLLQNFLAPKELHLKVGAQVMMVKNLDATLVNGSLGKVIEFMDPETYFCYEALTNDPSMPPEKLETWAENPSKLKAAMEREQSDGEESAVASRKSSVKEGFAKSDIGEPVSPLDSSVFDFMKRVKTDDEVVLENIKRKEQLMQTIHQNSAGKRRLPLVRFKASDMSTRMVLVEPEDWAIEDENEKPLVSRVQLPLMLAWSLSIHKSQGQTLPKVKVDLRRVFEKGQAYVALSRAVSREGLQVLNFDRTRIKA

[6] = biological target: T6, ScPif1 R324W (Saccharomyces cerevisiae, UniProt P07271 236-753, R324W); assay: as above; conditions: protein: recombinant; tags: N-terminal SUMO tag, cleaved; label: 3' 6-FAM; parallel intramolecular G4
T6 sequence: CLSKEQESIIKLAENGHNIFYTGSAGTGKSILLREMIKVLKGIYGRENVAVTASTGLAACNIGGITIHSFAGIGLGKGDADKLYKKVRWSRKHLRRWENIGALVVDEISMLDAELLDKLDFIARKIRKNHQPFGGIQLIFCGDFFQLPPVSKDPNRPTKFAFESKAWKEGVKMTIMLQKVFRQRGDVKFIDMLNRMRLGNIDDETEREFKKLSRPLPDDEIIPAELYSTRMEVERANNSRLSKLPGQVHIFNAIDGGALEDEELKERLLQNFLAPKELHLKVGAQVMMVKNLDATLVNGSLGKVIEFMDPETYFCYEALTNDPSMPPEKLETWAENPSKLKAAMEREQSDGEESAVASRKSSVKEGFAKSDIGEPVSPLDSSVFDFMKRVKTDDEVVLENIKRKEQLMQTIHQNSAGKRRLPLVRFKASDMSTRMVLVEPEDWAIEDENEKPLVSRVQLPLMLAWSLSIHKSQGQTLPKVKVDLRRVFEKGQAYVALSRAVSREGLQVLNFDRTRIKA

`Nc1ncnc2c1ncn2[C@@H]1O[C@H](COP(=O)(O)OP(=O)(O)OP(=O)(O)O)[C@@H](O)[C@H]1O` [ATP] was tested, and the ATP hydrolysis assay [1] was “they hydrolyze ATP at a similar rate to WT ScPif1”.

With TTTTTTTTGGTGGTGGTTGTTGTGGTGGTGGTGGT (structured_DNA) [T7-AT11-FAM] the Kd ([2]; parallel intramolecular G4 with 5' ssDNA tail) was 0.00723 µM.

In the case of TTTTTTT (ssDNA) [T7-FAM], the Kd ([2]; single strand) is reported as 0.0128 µM.

Work on TGGTGGTGGTTGTTGTGGTGGTGGTGGT (structured_DNA) [AT11-FAM] yielded a Kd ([2]; parallel intramolecular G4) of 0.0112 µM, a Kd [3] of 0.0256 µM and a Kd [4] of 0.0109 µM. The Kd [5] was 0.0118 µM and the Kd [6] was 0.00957 µM.
